Our source for the percent eluting as a monomer, percent eluting as the wild-type protein (dimer) and stoichiometry N values is PMC7382501.

The target of this experiment is FasRLVL triple mutant (Leu106, Val163 and Leu185 to phenylalanine) (Mycobacterium tuberculosis) (UniProt O05858). As to the kind of experiment: SEC.

For orientation: stoichiometry N means a count of units in the complex or per binding partner. “FasRLVL triple mutant (Leu106, Val163 and Leu185 to phenylalanine) (from UniProt O05858 1-228) (natural protein)” came in with a percent eluting as a monomer of under 50%, a percent eluting as the wild-type protein (dimer) of over 50% and a stoichiometry N of 2.
